According to paper PMC6499931:

Columns and labels:
[1] = biological target: human FcγRIIIa stably expressed on CHO cells (human) (UniProt P08637)
[2] = biological target: human FcγRIIIa stably expressed on CHO cells (human) (UniProt P08637); experiment: flow cytometry on cells

UniProt P08637, sequence (P08637 17-254): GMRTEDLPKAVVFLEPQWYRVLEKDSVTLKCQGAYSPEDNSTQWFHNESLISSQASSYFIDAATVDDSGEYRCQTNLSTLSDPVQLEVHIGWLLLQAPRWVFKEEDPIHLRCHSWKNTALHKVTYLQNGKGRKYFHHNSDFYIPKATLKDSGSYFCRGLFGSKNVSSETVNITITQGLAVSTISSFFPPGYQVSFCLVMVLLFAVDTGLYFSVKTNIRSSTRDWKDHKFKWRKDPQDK

NK cell-mediated ADCC against the FucGM1+ SCLC cell line DMS79, EC50 [1] [nmol/L]	EC50 [2] [nM]	Binder
0.06	3.5	BMS-986012, nonfucosylated fully human IgG1 anti-fucosyl-GM1 antibody (antibody, V domains shown) VH: EVQLVESGGGSVQPGESLRLSCVASGFTFSRYKMNWVRQAPGKGLEWVSYISRSGRDIYYADSVKGRFTISRDNAKNSLYLQMNSLRDEDTAVYYCAGTVTTYYYDFGMDVWGQGTTVTVSS VL: DIQMTQSPSSLSASVGDRVTITCRASQGISSWLAWYQQKPEKAPKSLIYAASSLQSGVPSRFSGSGSGTDFTLTISSLQPEDFATYYCQQYNSYPPTFGGGTKVEIK
8	138	7E4, fucosylated parental anti-fucosyl-GM1 antibody in conventional fucosylated IgG1 format (antibody, V domains shown) VH: EVQLVESGGGSVQPGESLRLSCVASGFTFSRYKMNWVRQAPGKGLEWVSYISRSGRDIYYADSVKGRFTISRDNAKNSLYLQMNSLRDEDTAVYYCAGTVTTYYYDFGMDVWGQGTTVTVSS VL: DIQMTQSPSSLSASVGDRVTITCRASQGISSWLAWYQQKPEKAPKSLIYAASSLQSGVPSRFSGSGSGTDFTLTISSLQPEDFATYYCQQYNSYPPTFGGGTKVEIK
